For experiment [1], the target named is HLA-C*07:02. The experiment is described as follows: IEDB peptide-MHC binding, purified MHC/direct/fluorescence; filed as Kd, often an IC50 or EC50 that approximates it; ≥ and ≤ were set here for values at or beyond the usual limits of such assays.
Experiment [2] concerns the target HLA-B*08:01. The experiment is described as above. The following applies: source organism: Vibrio cholerae V52.
Experiment [3] deals with HLA-A*02:01. The experiment is described as follows: IEDB peptide-MHC binding, purified MHC/competitive/fluorescence; filed as Kd, often an IC50 or EC50 that approximates it; ≥ and ≤ were set here for values at or beyond the usual limits of such assays.
For experiment [4], the target named is HLA-A*68:02. The experiment is described as above. The following applies: source organism: Vibrio parahaemolyticus RIMD 2210633.
The target of experiment [5] is HLA-A*29:02. Described as above. The following applies: source organism: Vibrio parahaemolyticus RIMD 2210633.
In experiment [6] the target is HLA-A*03:01. The experiment is described as above. The following applies: source organism: Vibrio parahaemolyticus RIMD 2210633.
In experiment [7] the target is HLA-A*26:01. The description is as above.
Experiment [8] addresses HLA-B*18:01. Described as above. The following applies: source organism: Vibrio parahaemolyticus RIMD 2210633.
The target in experiment [9] is HLA-B*46:01. The description is as above. The following applies: source organism: Vibrio parahaemolyticus RIMD 2210633.
Experiment [10] addresses HLA-B*27:03. The experiment is described as above. The following applies: source organism: Vibrio parahaemolyticus RIMD 2210633.
For experiment [11], the target named is HLA-B*39:01. The description is as above.
The target of experiment [12] is HLA-B*57:01. The description is as above. The following applies: source organism: Vibrio parahaemolyticus RIMD 2210633.
Experiment [13] concerns the target HLA-A*02:12. The experiment is described as above. The following applies: source organism: Vibrio parahaemolyticus RIMD 2210633.
Experiment [14] deals with HLA-B*51:01. Described as above.
Experiment [15] has as its target HLA-A*02:19. The experiment is described as above. The following applies: source organism: Vibrio parahaemolyticus RIMD 2210633.
The target in experiment [16] is HLA-A*02:03. The description is as above.
For experiment [17], the target named is HLA-B*15:01. Described as above.
The target in experiment [18] is HLA-B*35:01. Described as above. The following applies: source organism: Yersinia pestis Nepal516.
Experiment [19] deals with HLA-C*05:01. The experiment in a line: IEDB peptide-MHC binding, purified MHC/direct/fluorescence; filed as Kd, often an IC50 or EC50 that approximates it; ≥ and ≤ were set here for values at or beyond the usual limits of such assays. The following applies: source organism: Yersinia pestis Nepal516.
Experiment [20] has as its target HLA-C*03:03. The description is as above. The following applies: source organism: Yersinia pestis Nepal516.
The target of experiment [21] is HLA-C*12:03. Described as above. The following applies: source organism: Yersinia pestis Nepal516.
Experiment [22] has as its target HLA-B*08:01. The experiment is described as follows: IEDB peptide-MHC binding, purified MHC/competitive/fluorescence; filed as Kd, often an IC50 or EC50 that approximates it; ≥ and ≤ were set here for values at or beyond the usual limits of such assays.
For experiment [23], the target named is HLA-B*83:01. The experiment is described as above. The following applies: source organism: Vaccinia virus Copenhagen.
Experiment [24] has as its target HLA-A*69:01. The experiment is described as above. The following applies: source organism: Vaccinia virus Copenhagen.
Experiment [25] addresses HLA-A*02:06. The experiment is described as above. The following applies: source organism: Vaccinia virus Copenhagen.
For experiment [26], the target named is HLA-B*15:42. The description is as above. The following applies: source organism: Vaccinia virus Copenhagen.
The target of experiment [27] is HLA-B*45:06. The description is as above. The following applies: source organism: Vaccinia virus Copenhagen.
The target in experiment [28] is HLA-A*01:01. The experiment in a line: IEDB peptide-MHC binding, purified MHC/direct/fluorescence; filed as Kd, often an IC50 or EC50 that approximates it; ≥ and ≤ were set here for values at or beyond the usual limits of such assays. The following applies: source organism: Cowpox virus.
The target of experiment [29] is HLA-B*48:01. The description is as above. The following applies: source organism: Cowpox virus.
Experiment [30] concerns the target HLA-A*31:01. The experiment is described as above. The following applies: source organism: Cowpox virus.
Experiment [31] addresses HLA-A*03:01. The experiment is described as above. The following applies: source organism: Cowpox virus.
Experiment [32] addresses HLA-B*58:01. Described as above. The following applies: source organism: Cowpox virus.
For experiment [33], the target named is HLA-B*18:01. The description is as above. The following applies: source organism: Cowpox virus.
Experiment [34] addresses HLA-B*15:17. Described as above. The following applies: source organism: Cowpox virus.
For experiment [35], the target named is HLA-B*46:01. The experiment is described as above. The following applies: source organism: Cowpox virus.
In experiment [36] the target is HLA-B*07:02. Described as above. The following applies: source organism: Cowpox virus.
Experiment [37] deals with HLA-B*40:01. Described as above. The following applies: source organism: Cowpox virus.
In experiment [38] the target is HLA-A*11:01. Described as above. The following applies: source organism: Cowpox virus.
For experiment [39], the target named is HLA-B*57:01. Described as above. The following applies: source organism: Cowpox virus.
Experiment [40] addresses HLA-B*51:01. The experiment is described as above. The following applies: source organism: Cowpox virus.
Experiment [41] has as its target HLA-B*27:05. The experiment is described as above. The following applies: source organism: Cowpox virus.
The target of experiment [42] is HLA-B*15:01. The description is as above. The following applies: source organism: Cowpox virus.
Setting [43] is: source organism: Vibrio parahaemolyticus RIMD 2210633.
The mark [44] stands for this setting: source organism: Yersinia pestis Nepal516.
Where [45] appears, read: source organism: Salmonella enterica subsp. enterica serovar Typhi.
Setting [46] is: source organism: Vaccinia virus Copenhagen.

Usually Kd stands for the free concentration of one partner at which half of the binding sites on the other are occupied at equilibrium, for simple one-to-one binding.

As to FIRWRFYLL, the Kd is 4.08 µM in experiment [1] (source organism: Vibrio cholerae 2740-80) and 0.216 µM in experiment [2].
With HVIYFTAFT, the Kd is at least 20 µM in experiment [3] (setting [43]); 0.0577 µM in [4]; at least 20 µM in [5]; at least 20 µM in experiment [6]; at least 20 µM in experiment [7] (setting [43]); at least 20 µM in experiment [8]. The Kd in experiment [9], in [10], in experiment [11] (setting [43]), in experiment [12], in experiment [13] and in experiment [14] (setting [43]) was at least 20 µM throughout. The Kd in experiment [15], in experiment [16] (setting [43]) and in [17] (setting [43]) was at least 20 µM throughout.
FAFKLSFAI: the Kd in [3] (setting [44]) is 1.01 µM; in [11] (setting [44]), 3 µM; in experiment [14] (setting [44]), at least 20 µM; in experiment [18] it was 0.065 µM; in experiment [17] (setting [44]), at least 20 µM; in experiment [19], at least 20 µM. The figures for the Kd in experiment [1] (setting [44]), in experiment [20] and in experiment [21] were at least 20 µM, 0.004 µM and at most 0.001 µM, respectively.
For MMLSPLVAL, the dissociation constant Kd turned out to be 0.0002 µM in [3] (setting [45]), 0.0008 µM in experiment [11] (setting [45]), 0.96 µM in [22] (setting [45]) and 0.858 µM in [1] (source organism: Salmonella enterica subsp. enterica serovar Typhi str. CT18).
Consider YPPPRYITV, for which the Kd in experiment [3] (setting [46]) was 0.106 µM; in [23], at least 5 µM; in experiment [7] (setting [46]) it was at least 20 µM; in [24], 0.0681 µM; in [25], 0.0114 µM; in [11] (setting [46]), 3.58 µM. Further, the Kd in experiment [26] was at least 5 µM; in experiment [22] (setting [46]) it was 0.543 µM; in experiment [27], at least 5 µM; in experiment [16] (setting [46]) it was 0.239 µM; in experiment [28], at least 20 µM; in [29], at least 20 µM. Besides, the Kd in [30], in [31], in experiment [32], in experiment [33], in [34] and in experiment [35] was at least 20 µM in each case. The Kd in experiment [36] was 0.113 µM; in experiment [37] it was at least 20 µM; in experiment [38] it was at least 20 µM; in experiment [39], at least 20 µM; in experiment [40] it was 0.179 µM; in experiment [41], at least 20 µM. In [42], this sequence gave a Kd of at least 20 µM.

The record behind these values is the Immune Epitope Database (IEDB).
